According to patent US10314894B2, “Treatment of cardio-renal disease using PCSK6” (THE CLEVELAND CLINIC FOUNDATION, priority 2014, dated 2019):

Key:
[1] = target: T1, corin mutant R539C (Homo sapiens, UniProt Q9Y5Q5, R539C); assay: PCSK6-mediated corin activation in HEK293 cells, corin mutant R539C; type: cell-based; details: Western, densitometry
T1 construct: expressed in transfected cells; host or cells: HEK293
T1 sequence (Q9Y5Q5 1-1042 R539C): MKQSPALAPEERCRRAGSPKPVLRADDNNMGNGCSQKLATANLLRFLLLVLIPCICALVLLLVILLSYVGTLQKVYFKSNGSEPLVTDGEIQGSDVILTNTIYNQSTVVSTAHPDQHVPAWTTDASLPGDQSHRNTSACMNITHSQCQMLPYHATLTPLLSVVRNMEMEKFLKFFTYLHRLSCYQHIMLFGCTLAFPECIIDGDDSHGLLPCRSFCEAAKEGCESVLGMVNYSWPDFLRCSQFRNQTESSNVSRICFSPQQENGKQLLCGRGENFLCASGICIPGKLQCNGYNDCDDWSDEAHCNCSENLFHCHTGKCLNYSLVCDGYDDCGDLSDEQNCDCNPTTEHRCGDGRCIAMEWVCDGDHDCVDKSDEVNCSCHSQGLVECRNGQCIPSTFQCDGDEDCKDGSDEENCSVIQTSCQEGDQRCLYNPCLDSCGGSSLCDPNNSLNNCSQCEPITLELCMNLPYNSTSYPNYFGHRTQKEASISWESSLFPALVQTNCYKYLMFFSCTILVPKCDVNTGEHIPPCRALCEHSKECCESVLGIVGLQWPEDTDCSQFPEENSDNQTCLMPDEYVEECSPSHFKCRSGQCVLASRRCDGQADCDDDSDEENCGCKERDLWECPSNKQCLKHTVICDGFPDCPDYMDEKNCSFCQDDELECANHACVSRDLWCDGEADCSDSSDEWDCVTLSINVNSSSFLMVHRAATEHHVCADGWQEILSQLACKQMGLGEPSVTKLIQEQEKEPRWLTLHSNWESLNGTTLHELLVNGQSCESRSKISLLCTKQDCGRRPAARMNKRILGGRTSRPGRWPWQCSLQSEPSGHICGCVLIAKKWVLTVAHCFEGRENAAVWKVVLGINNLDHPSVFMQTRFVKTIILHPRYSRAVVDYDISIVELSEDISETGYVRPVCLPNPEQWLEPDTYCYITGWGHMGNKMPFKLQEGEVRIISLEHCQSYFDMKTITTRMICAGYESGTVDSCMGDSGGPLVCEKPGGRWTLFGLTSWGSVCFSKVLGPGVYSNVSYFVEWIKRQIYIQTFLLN
Text: (§1) Plasmids expressing human corin WT and mutants R801A, S985A, T555I, Q568P, T555I/Q568P, K317E, S472G and R539C were reported previously. Dong, N. et al., J Biol Chem 289, 17909-17916 (2014); Knappe et al., J Biol Chem 278, 52363-52370 (2003); Wu et al., J Biol Chem 277, 16900-16905. (2002). Plasmids expressing human PCSK1-9 were made by cloning respective cDNAs into pcNDA3.1 vector. Recombinant corin and PCSK proteins encoded by these plasmids contained a C-terminal V5 or flag tag for protein detection in Western blotting.
(§2) HEK293 and HL-1 cells were transfected with corin or PCSK6 expression plasmids. After 48-72 h, cells were lysed in a buffer containing 25 mM Tris-HCl, pH 7.4, 150 mM NaCl, 1 mM EDTA, 1% (v/v) NP-40, and 1% (v/v) protease inhibitor cocktail. Recombinant corin and PCSK6 proteins were immunoprecipitated with an anti-V5 or anti-flag antibody. Western blotting was carried out to analyze corin expression and activation or PCSK6 expression with or without reducing agents. Percentage of corin activation (corin-p vs. corin fragments) was quantified by densitometric analysis of Western blots.

[2] = target: T2, corin mutant K317E (Homo sapiens, UniProt Q9Y5Q5, K317E); assay: PCSK6-mediated corin activation in HEK293 cells, corin mutant K317E; type: cell-based; details: Western, densitometry
T2 construct: expressed in transfected cells; host or cells: HEK293
T2 sequence (Q9Y5Q5 1-1042 K317E): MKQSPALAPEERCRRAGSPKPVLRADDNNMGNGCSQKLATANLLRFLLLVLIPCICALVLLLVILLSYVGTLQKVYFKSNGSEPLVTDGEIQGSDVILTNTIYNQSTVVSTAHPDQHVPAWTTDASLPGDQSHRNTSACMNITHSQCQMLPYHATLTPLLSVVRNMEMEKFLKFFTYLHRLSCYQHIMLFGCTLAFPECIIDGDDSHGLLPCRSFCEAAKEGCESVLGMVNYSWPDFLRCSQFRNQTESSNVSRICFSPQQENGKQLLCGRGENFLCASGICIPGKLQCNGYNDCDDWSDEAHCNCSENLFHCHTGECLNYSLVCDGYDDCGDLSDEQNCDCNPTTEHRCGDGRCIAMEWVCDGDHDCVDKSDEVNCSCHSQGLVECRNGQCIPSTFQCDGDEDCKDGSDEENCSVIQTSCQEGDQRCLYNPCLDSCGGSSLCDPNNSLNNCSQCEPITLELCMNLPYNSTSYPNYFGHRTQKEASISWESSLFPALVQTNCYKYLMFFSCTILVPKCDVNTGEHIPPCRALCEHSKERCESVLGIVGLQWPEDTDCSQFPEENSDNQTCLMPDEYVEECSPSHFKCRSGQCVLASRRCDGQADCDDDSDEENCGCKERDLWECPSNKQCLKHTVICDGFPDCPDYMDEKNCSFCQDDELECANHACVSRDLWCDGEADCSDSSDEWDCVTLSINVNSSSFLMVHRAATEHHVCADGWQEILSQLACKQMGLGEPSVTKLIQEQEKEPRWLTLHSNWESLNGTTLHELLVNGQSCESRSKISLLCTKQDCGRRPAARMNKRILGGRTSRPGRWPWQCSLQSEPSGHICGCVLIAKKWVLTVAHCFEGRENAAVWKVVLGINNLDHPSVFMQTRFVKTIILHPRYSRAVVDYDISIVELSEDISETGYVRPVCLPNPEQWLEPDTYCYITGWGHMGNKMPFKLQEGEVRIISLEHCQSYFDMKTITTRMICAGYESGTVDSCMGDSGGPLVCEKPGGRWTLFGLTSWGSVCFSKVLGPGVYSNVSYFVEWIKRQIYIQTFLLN
Text: as §1, §2

B1: proprotein convertase subtilisin/kexin-6 (protein, listed as Homo sapiens)
chain: MPPRAPPAPGPRPPPRAAAATDTAAGAGGAGGAGGAGGPGFRPLAPRPWRWLLLLALPAACSAPPPRPVYTNHWAVQVLGGPAEADRVAAAHGYLNLGQIGNLEDYYHFYHSKTFKRSTLSSRGPHTFLRMDPQVKWLQQQEVKRRVKRQVRSDPQALYFNDPIWSNMWYLHCGDKNSRCRSEMNVQAAWKRGYTGKNVVVTILDDGIERNHPDLAPNYDSYASYDVNGNDYDPSPRYDASNENKHGTRCAGEVAASANNSYCIVGIAYNAKIGGIRMLDGDVTDVVEAKSLGIRPNYIDIYSASWGPDDDGKTVDGPGRLAKQAFEYGIKKGRQGLGSIFVWASGNGGREGDYCSCDGYTNSIYTISVSSATENGYKPWYLEECASTLATTYSSGAFYERKIVTTDLRQRCTDGHTGTSVSAPMVAGIIALALEANSQLTWRDVQHLLVKTSRPAHLKASDWKVNGAGHKVSHFYGFGLVDAEALVVEAKKWTAVPSQHMCVAASDKRPRSIPLVQVLRTTALTSACAEHSDQRVVYLEHVVVRTSISHPRRGDLQIYLVSPSGTKSQLLAKRLLDLSNEGFTNWEFMTVHCWGEKAEGQWTLEIQDLPSQVRNPEKQGKLKEWSLILYGTAEHPYHTFSAHQSRSRMLELSAPELEPPKAALSPSQVEVPEDEEDYTAQSTPGSANILQTSVCHPECGDKGCDGPNADQCLNCVHFSLGSVKTSRKCVSVCPLGYFGDTAARRCRRCHKGCETCSSRAATQCLSCRRGFYHHQEMNTCVTLCPAGFYADESQKNCLKCHPSCKKCVDEPEKCTVCKEGFSLARGSCIPDCEPGTYFDSELIRCGECHHTCGTCVGPGREECIHCAKNFHFHDWKCVPACGEGFYPEEMPGLPHKVCRRCDENCLSCAGSSRNCSRCKTGFTQLGTSCITNHTCSNADETFCEMVKSNRLCERKLFIQFCCRTCLLAG
modifications: C-terminal FLAG tag
B1 was tested. Which “reduction in PCSK6-mediated corin activation compared with WT corin” value [1] did it give?
Its value is 62%.

What about the “reduction in PCSK6-mediated corin activation compared with WT corin” value [2] of the same molecule?
Its value is 39%.
